Series [1] concerns the molecule itself. The experiment in a line: crystal structure; DNPH1^E104Q co-crystallised with hmdUMP at 4 °C; space group P2_(1), 1.78 Å; six chains in the asymmetric unit.
Series [2] concerns the molecule itself. Description: crystal structure; DNPH1^E55Q co-crystallised with hmdUMP; space group P2_(1)2_(1)2_(1), 1.65 Å; one homodimer in the asymmetric unit.

B1: DNPH1^E104Q (human 2'-deoxynucleoside 5'-monophosphate N-glycosidase, crystallisation construct aa 19-162, E104Q) (enzyme, UniProt O43598 19-162, looked up)
chain: GRPALYFCGSIRGGREDRTLYERIVSRLRRFGTVLTEHVAAAELGARGEEAAGGDRLIHEQDLEWLQQADVVVAEVTQPSLGVGYQLGRAVAFNKRILCLFRPQSGRVLSAMIRGAADGSRFQVWDYEEGEVEALLDRYFEADP
notes: also called RCL; source: E. coli BL21 Star (DE3), purified (Ni-NTA, TEV cleavage, HisTrap and Resource Q flow-through, size exclusion)
As for B1, the binding result in series [1] is given as “binds”.

B2: DNPH1^E55Q (human 2'-deoxynucleoside 5'-monophosphate N-glycosidase, crystallisation construct aa 19-162, E55Q) (enzyme, UniProt O43598 19-162, looked up)
chain: GRPALYFCGSIRGGREDRTLYERIVSRLRRFGTVLTQHVAAAELGARGEEAAGGDRLIHEQDLEWLQQADVVVAEVTQPSLGVGYELGRAVAFNKRILCLFRPQSGRVLSAMIRGAADGSRFQVWDYEEGEVEALLDRYFEADP
modifications: deoxyribose monophosphate (dRP) covalently fused to E104
notes: 2'-deoxynucleoside 5'-monophosphate N-glycosidase (DNPH1, RCL), human, isoform 1, residues 19-162 (crystallisation construct) with the point mutation E55Q; Co-crystallised with hmdUMP; the crystal holds the trapped glycosyl-enzyme intermediate; also called RCL
Regarding B2, the binding result in series [2] is reported as “binds”.

Values taken from publication PMC10603095 (Nature Communications, 2023).
